What was measured:
[1] = target: Recombinant human NGF (Sigma) (human, UniProt P01138 122-241, limits assumed); test: cell-based or functional assay
[2] = target: Recombinant mouse NGF (R&D Systems) (mouse, UniProt P01139 122-241); test: cell-based or functional assay
Chain of Recombinant mouse NGF (R&D Systems) (P01139 122-241 limits assumed): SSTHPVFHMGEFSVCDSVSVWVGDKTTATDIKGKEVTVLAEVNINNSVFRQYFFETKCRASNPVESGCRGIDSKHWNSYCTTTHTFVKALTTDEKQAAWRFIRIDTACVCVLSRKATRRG

Chain of Recombinant human NGF (Sigma) (P01138 122-241 limits assumed): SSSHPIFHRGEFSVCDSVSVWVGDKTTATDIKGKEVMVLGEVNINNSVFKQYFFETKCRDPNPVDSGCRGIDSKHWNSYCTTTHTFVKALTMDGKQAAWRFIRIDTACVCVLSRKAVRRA

B1: MEDI-578 IgG1 TM YTE (antibody, V domains shown)
VH: QVQLVQSGAEVKKPGSSVKVSCKASGGTFSTYGISWVRQAPGQGLEWMGGIIPIFDTGNSAQSFQGRVTITADESTSTAYMELSSLRSEDTAVYYCARSSRIYDLNPSLTAYYDMDVWGQGTMVTVSS
VL: QSVLTQPPSVSAAPGQKVTISCSGSSSNIGNNYVSWYQQLPGTAPKLLIYDNNKRPSGIPDRFSGSKSGTSATLGITGLQTGDEADYYCGTWDSSLSAWVFGGGTKLTVL
[1]
  IC50 (read off the curve), human NGF-induced TF-1 proliferation: ~700 pM
[2]
  IC50 (read off the curve), murine NGF-induced TF-1 proliferation: ~300 pM
